For this test, the target named is Shank3 (UniProt Q4ACU6 1-1730). Kind of test: ITC. In general terms: Isothermal titration calorimetry measures the heat released or taken up as one component is titrated into another.

Changes are numbered by the printed parent chain. In names and notes the source's numbering stands.

For orientation: Kd means the free concentration of one partner at which half of the binding sites on the other are occupied at equilibrium, for simple one-to-one binding. A low value points to tighter binding.

Shank3, sequence (Q4ACU6 whole entry): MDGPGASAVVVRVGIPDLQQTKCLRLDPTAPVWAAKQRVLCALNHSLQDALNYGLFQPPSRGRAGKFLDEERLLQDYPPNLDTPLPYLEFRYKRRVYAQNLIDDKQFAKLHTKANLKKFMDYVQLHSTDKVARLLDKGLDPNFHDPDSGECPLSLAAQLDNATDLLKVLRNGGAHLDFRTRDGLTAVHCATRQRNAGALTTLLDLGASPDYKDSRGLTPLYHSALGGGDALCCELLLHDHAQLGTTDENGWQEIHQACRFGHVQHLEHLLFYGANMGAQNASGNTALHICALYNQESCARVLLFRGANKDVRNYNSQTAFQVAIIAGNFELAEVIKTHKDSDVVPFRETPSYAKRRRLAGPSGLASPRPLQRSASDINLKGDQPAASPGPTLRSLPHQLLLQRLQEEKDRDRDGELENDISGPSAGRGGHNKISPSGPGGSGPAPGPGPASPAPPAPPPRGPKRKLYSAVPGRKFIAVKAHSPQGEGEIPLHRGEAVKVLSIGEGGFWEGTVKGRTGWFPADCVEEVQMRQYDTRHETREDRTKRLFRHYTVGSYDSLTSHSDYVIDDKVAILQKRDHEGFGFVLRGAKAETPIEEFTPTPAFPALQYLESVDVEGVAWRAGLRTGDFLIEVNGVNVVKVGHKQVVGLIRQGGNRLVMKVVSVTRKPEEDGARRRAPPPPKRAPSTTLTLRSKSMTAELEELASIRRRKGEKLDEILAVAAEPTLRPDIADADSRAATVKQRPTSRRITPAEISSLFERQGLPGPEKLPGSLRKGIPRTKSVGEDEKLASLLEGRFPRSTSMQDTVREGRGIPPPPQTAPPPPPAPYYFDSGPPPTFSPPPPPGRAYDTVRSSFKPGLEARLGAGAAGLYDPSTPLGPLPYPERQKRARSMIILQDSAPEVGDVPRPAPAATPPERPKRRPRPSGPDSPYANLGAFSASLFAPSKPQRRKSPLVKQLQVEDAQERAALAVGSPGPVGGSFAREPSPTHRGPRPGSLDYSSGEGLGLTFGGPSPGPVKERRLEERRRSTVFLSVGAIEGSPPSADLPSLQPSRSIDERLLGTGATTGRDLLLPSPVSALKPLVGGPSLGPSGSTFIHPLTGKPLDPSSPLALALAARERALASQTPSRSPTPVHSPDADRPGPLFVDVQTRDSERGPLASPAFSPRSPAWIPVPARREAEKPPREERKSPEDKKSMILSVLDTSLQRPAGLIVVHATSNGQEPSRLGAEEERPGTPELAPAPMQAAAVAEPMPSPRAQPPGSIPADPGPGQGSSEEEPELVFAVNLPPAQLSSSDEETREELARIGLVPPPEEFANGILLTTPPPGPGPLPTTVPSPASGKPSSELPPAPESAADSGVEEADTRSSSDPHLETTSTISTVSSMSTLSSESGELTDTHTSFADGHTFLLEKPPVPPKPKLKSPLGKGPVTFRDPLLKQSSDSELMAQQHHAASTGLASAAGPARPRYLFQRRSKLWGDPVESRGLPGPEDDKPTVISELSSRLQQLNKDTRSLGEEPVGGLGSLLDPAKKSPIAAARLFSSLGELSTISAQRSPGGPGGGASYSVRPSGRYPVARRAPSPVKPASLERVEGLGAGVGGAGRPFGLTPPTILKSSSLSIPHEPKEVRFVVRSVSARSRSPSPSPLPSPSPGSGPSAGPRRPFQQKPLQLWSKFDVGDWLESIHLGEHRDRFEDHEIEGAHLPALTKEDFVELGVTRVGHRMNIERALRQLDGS

B1: Homer1-R3E (natural protein)
chain: MGEQPIFSTRAHVFQIDPNTKKNWVPTSKHAVTVSYFYDSTENVYEIISLDGSKAIINSTITPNMTFTKTSQKFGQWADSEANTVYGLGFSSEHHLSKFAEKFQEFKEAARLAKEKSQEKMELTSTPSQESAGGDLQSPLTPESINGTDDERTPDVTQNSEPRAEPAQNALPFSHSAGDRTQGLSHASSAISKHWEAELATLKGNNAKLTAALLESTANVKQWKQQLAAYQEEAERLHKRVTELECVSSQANAVHSHKTELSQTVQELEETLKVKEEEIERLKQEIDNARELQEQRDSLTQKLQEVEIRNKDLEGQLSELEQRLEKSQSEQDAFRSNLKTLLEILDGKIFELTELRDNLAKLLECS
Regarding B1, binding was put at a Kd of 2.4 µM.

B2: Homer1-WT (full-length Homer1) (natural protein)
chain: B1 chain with E42R, E46R, E81R
In turn, B2 registered a Kd of 1 µM.

Values taken from PMC10322149 (2023).
